One molecule from paper PMC13223232, “Structural basis for TRF2-RAP1 recruitment by EBNA1 at the EBV origin of replication” (Scientific Reports, 2025) can be followed below.

For series [1], the target named is EBNA1 459-607;TRF2 TRFH domain (Epstein-Barr virus;Homo sapiens?, UniProt P03211;Q15554 459-607;85-287, |). The series can be described thus: EMSA; clear TRFH supershift; EMSA: 10 mM HEPES pH 7.5, 300 mM KCl (100 mM for TRFH), 5 mM MgCl2, 1 mM ZnCl2, 5 mM BME, 0.05% NP-40, 5% glycerol; 5 nM probe; 20 nM EBNA1 in TRF2/Rap1 titrations; 1.4% agarose; temperature not stated. To be noted: protein: recombinant;recombinant; tags: ;GST (N-terminal); chain copies: 4;2; label: 5'-IRD700 on both strands (EMSA); text calls it 60 bp). For orientation: In EMSA bound probe runs differently from free probe, usually more slowly.
Chain of EBNA1 459-607;TRF2 TRFH domain (Q15554 85-287, one chain of several): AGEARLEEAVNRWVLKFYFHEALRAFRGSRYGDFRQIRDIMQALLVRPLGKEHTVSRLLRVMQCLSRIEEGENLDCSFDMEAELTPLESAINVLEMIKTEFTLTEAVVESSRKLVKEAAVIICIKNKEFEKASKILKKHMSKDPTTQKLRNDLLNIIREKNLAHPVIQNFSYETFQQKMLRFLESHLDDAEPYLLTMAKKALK

Series [2] has as its target EBNA1 DBD 401-607;TRF2 TRFH domain (Epstein-Barr virus;Homo sapiens?, UniProt P03211;Q15554 401-607;85-287, |). The description is as above. To be noted: protein: recombinant;recombinant; tags: His6-SUMO (N-terminal, cleaved by ULP1);GST (N-terminal); chain copies: 4;2; label: 5'-IRD700 on both strands (EMSA); text calls it 60 bp).
Another series deals with T1, Rap1 full length (UniProt Q9NYB0 1-399).
T1 sequence: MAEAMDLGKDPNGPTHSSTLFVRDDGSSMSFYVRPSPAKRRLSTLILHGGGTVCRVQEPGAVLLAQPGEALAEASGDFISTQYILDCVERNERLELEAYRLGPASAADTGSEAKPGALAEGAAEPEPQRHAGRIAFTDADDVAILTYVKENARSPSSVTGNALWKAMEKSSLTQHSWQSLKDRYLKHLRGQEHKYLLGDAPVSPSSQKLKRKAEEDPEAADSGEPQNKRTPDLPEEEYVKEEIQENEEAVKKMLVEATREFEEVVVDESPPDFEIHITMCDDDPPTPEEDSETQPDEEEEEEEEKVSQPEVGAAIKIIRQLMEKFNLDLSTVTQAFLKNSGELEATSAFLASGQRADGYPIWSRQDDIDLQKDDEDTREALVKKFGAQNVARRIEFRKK
The series can be described thus: EMSA; up to 480 nM, no EBNA1; EMSA: 10 mM HEPES pH 7.5, 300 mM KCl (100 mM for TRFH), 5 mM MgCl2, 1 mM ZnCl2, 5 mM BME, 0.05% NP-40, 5% glycerol; 5 nM probe; 20 nM EBNA1 in TRF2/Rap1 titrations; 1.4% agarose; temperature not stated. The conditions noted are these: protein: recombinant; tags: His6-SUMO (N-terminal, cleaved by ULP1); label: 5'-IRD700 on both strands (EMSA); text calls it 60 bp).

Series [3] addresses TRF2 full length;Rap1 full length (Homo sapiens?;Homo sapiens?, UniProt Q15554;Q9NYB0 1-542;1-399, |). Description: EMSA; discrete bandshift, no EBNA1; EMSA: 10 mM HEPES pH 7.5, 300 mM KCl (100 mM for TRFH), 5 mM MgCl2, 1 mM ZnCl2, 5 mM BME, 0.05% NP-40, 5% glycerol; 5 nM probe; 20 nM EBNA1 in TRF2/Rap1 titrations; 1.4% agarose; temperature not stated. The conditions noted are these: protein: recombinant;recombinant; tags: His6-SUMO (N-terminal, cleaved by ULP1);His6-SUMO (N-terminal, cleaved by ULP1); chain copies: 2;2; label: 5'-IRD700 on both strands (EMSA); text calls it 60 bp).

Series [4] deals with EBNA1 DBD 401-607;TRF2 full length (Epstein-Barr virus;Homo sapiens?, UniProt P03211;Q15554 401-607;1-542, |). The series can be described thus: EMSA; TRF2 titrated with EBNA1 401-607; binding increased roughly twofold; EMSA: 10 mM HEPES pH 7.5, 300 mM KCl (100 mM for TRFH), 5 mM MgCl2, 1 mM ZnCl2, 5 mM BME, 0.05% NP-40, 5% glycerol; 5 nM probe; 20 nM EBNA1 in TRF2/Rap1 titrations; 1.4% agarose; temperature not stated. To be noted: protein: recombinant;recombinant; tags: His6-SUMO (N-terminal, cleaved by ULP1);His6-SUMO (N-terminal, cleaved by ULP1); chain copies: 4;2; label: 5'-IRD700 on both strands (EMSA); text calls it 60 bp).

Series [5] concerns the target EBNA1 DBD 401-607;TRF2 full length;Rap1 full length (Epstein-Barr virus;Homo sapiens?;Homo …, UniProt P03211;Q15554;Q9NYB0 401-607;1-542;1-399, ||). The series can be described thus: EMSA; TRF2/Rap1 titrated with EBNA1 401-607; binding increased roughly twofold; EMSA: 10 mM HEPES pH 7.5, 300 mM KCl (100 mM for TRFH), 5 mM MgCl2, 1 mM ZnCl2, 5 mM BME, 0.05% NP-40, 5% glycerol; 5 nM probe; 20 nM EBNA1 in TRF2/Rap1 titrations; 1.4% agarose; temperature not stated. To be noted: protein: recombinant;recombinant;recombinant; label: 5'-IRD700 on both strands (EMSA); text calls it 60 bp).

Chain of EBNA1 DBD 401-607;TRF2 TRFH domain (Q15554 85-287, one chain of several): as the sequence (Q15554 85-287, one chain of several) above

B1: ½DS (EBV oriP dyad symmetry half) (dsDNA)
DNA 1: TAACCCTAATTCGATAGCATATGCTTCCCGTTGGGTAACATATGCTATTGAATTAGGGTTAG
DNA 2: CTAACCCTAATTCAATAGCATATGTTACCCAACGGGAAGCATATGCTATCGAATTAGGGTTA
On to B1, for which the binding result is reported as “binds” in series [1]; “binds” in series [2]; “no binding” with Rap1 full length; “binds” in series [3]; “binds” in series [4]; “binds” in series [5].
